PMC1635299

Tests used:
Msx2 = Msx2 (UniProt Q03358 1-267); assay: EMSA
Dlx2 = Dlx2 (UniProt P40764 1-332); assay: EMSA
Dlx2, sequence (P40764 whole entry): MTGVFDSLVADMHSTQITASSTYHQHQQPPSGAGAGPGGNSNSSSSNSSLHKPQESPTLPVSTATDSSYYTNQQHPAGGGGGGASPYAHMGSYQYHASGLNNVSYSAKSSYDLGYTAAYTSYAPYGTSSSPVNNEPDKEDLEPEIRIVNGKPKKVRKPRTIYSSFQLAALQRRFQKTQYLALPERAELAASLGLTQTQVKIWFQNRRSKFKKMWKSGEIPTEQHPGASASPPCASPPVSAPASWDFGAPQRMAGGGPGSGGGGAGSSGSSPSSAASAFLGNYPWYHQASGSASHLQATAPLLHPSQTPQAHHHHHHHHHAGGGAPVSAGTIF

Msx2, sequence (Q03358 whole entry): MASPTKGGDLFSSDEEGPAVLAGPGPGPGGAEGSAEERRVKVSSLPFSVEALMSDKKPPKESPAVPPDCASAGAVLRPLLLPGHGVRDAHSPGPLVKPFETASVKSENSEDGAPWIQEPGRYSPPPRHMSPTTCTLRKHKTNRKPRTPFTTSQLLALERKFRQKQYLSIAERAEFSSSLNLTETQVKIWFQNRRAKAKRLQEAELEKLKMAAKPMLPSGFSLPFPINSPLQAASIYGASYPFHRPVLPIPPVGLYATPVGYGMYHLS

B1: Msx2 promoter Dlx2 site probe (dsDNA)
DNA 1: GATCCGGGTAGAGATTAGTTGAATATCCCTTGGGGATC
DNA 2: GATCCCCAAGGGATATTCAACTAATCTCTACCCGGATC
- binding result (Msx2): binds
- binding result (Dlx2): binds
